This is an account of results in paper PMC2217671.

Substrate in the data set: NCCC[C@H](N)C(=O)O
Description: purified protein. The conditions noted are these: 200 uM PLP, 12.5 mM DTT, 250 mM Tris pH 7.5, 37 °C, 0.002% BRIJ-35 added, enzyme unstable, low activity.

B1: recombinant E. histolytica putative ornithine decarboxylase (ODC)-like protein (Entamoeba histolytica) (protein)
chain: MKQTSLEVKEFALNLISQFEPENQPLGFWIFDTEGVEKAVERWKKNMPTVRPCFAVKCNPEPHLVKLLGELGCGFDCASLNEIKEVLDLGFNPEDITYSQTFKPYNQLIEASHLGINHTIVDSIDEVQKIAKYAPKMGIMIRIMENDTSAGHVFGEKFGLHDDEVEIVLKEIKDKGLNLDGVHFHVGSDSHNSEVFTKALTKARNTVTLAEQFGMKPYLIDIGGGFSQVAPFEEFAATIEKTIKELEFPERTRFIAEPGRYMASNAFHLVSSLHGKRVRIQNGKKQIEYTSGDGLHGSFGCCIWFEKQKSCECITQKVNENTKMYESIIYGPSCNGSDKVATQELPEMEPGKDWLLFPNMGAYTISMATNFNGFEERNHVIYTLPLKSTKIIQIPKSIECNSVPSLNGIPHYA
Consider B1, for which the Km was found to be 1500 µM.

For orientation: Km means the concentration of substrate that gives half-maximal velocity.
